Source: patent US20230002480A1

Key:
Assay in all cases: cell-based or functional assay
[1] = biological target: HIV-1 Env of pseudovirus C1080.c03 (clade CRF01_AE) (HIV-1)
[2] = biological target: HIV-1 Env of pseudovirus AC10.0.29 (clade B) (HIV-1)
[3] = biological target: HIV-1 Env of pseudovirus CNE53 (clade BC) (HIV-1)
[4] = biological target: HIV-1 Env of pseudovirus TRO.11 (clade B) (HIV-1)
[5] = biological target: HIV-1 Env of pseudovirus SC05_8C11_2344 (clade B (T/F)) (HIV-1)
[6] = biological target: HIV-1 Env of pseudovirus Q259.d2.17 (clade A) (HIV-1)
[7] = biological target: HIV-1 Env of pseudovirus HIV-16845-2.22 (clade C) (HIV-1)
[8] = biological target: HIV-1 Env of pseudovirus Q842.d12 (clade A) (HIV-1)
[9] = biological target: HIV-1 Env of pseudovirus RHPA4259.7 (clade B) (HIV-1)
[10] = biological target: HIV-1 Env of pseudovirus Ce2060_G9 (clade C (T/F)) (HIV-1)
[11] = biological target: HIV-1 Env of pseudovirus HIV-0013095-2.11 (clade C) (HIV-1)
[12] = biological target: HIV-1 Env of pseudovirus Du172.17 (clade C) (HIV-1)
[13] = biological target: HIV-1 Env of pseudovirus 1054_07_TC4_1499 (clade B (T/F)) (HIV-1)
[14] = biological target: HIV-1 Env of pseudovirus Ce0682_E4 (clade C (T/F)) (HIV-1)
[15] = biological target: HIV-1 Env of pseudovirus Q23.17 (clade A) (HIV-1)

10E8 (antibody)
IC50, titer in TZM.bl cells [1]: 0.061 µg/mL | IC80, titer in TZM.bl cells [1]: 0.731 µg/mL

N49P18.1 (antibody)
IC50 [2]: 20 µg/mL | IC80 [2]: > 50 µg/mL | MPI [2]: 71 | IC50 [3]: 4.08 µg/mL | IC80 [3]: 21.8 µg/mL | MPI [3]: 97 | IC50 [4]: 4.25 µg/mL | IC80 [4]: 11.7 µg/mL | MPI [4]: 99 | IC50 [5]: 17.3 µg/mL | IC80 [5]: > 50 µg/mL | MPI [5]: 79 | IC50 [6]: > 50 µg/mL | IC80 [6]: > 50 µg/mL | MPI [6]: 37 | IC50 [7]: > 50 µg/mL | IC80 [7]: > 50 µg/mL | MPI [7]: 23 | IC50 [8]: 3.04 µg/mL | IC80 [8]: 8.13 µg/mL | MPI [8]: 100 | IC50 [9]: 4.34 µg/mL | IC80 [9]: 21.4 µg/mL | MPI [9]: 98 | IC50 [10]: > 50 µg/mL | IC80 [10]: > 50 µg/mL | MPI [10]: 37 | IC50 [11]: > 50 µg/mL | IC80 [11]: > 50 µg/mL | MPI [11]: 48 | IC50 [12]: 6.52 µg/mL | IC80 [12]: 21.3 µg/mL | MPI [12]: 92 | IC50 [13]: > 50 µg/mL | IC80 [13]: > 50 µg/mL | MPI [13]: 0 | IC50 [14]: 3.95 µg/mL | IC80 [14]: 21.1 µg/mL | MPI [14]: 96 | IC50 [15]: 1.16 µg/mL | IC80 [15]: 6.93 µg/mL | MPI [15]: 100

PG9 (antibody)
IC50, titer in TZM.bl cells [1]: 0.004 µg/mL | IC80, titer in TZM.bl cells [1]: 0.013 µg/mL

10-1074 (antibody)
IC50, titer in TZM.bl cells [1]: > 50 µg/mL | IC80, titer in TZM.bl cells [1]: > 50 µg/mL

N49P11 (antibody)
IC50 [2]: 5.52 µg/mL | IC80 [2]: 20 µg/mL | MPI [2]: 100 | IC50 [3]: 0.43 µg/mL | IC80 [3]: 2.88 µg/mL | MPI [3]: 100 | IC50 [4]: 0.179 µg/mL | IC80 [4]: 0.937 µg/mL | MPI [4]: 100 | IC50 [5]: 5.42 µg/mL | IC80 [5]: 20.5 µg/mL | MPI [5]: 100 | IC50 [6]: 8.42 µg/mL | IC80 [6]: 21.4 µg/mL | MPI [6]: 100 | IC50 [7]: 1.72 µg/mL | IC80 [7]: 8.15 µg/mL | MPI [7]: 100 | IC50 [8]: 0.027 µg/mL | IC80 [8]: 0.103 µg/mL | MPI [8]: 100 | IC50 [9]: 0.202 µg/mL | IC80 [9]: 0.956 µg/mL | MPI [9]: 100 | IC50 [10]: 3.33 µg/mL | IC80 [10]: 13.2 µg/mL | MPI [10]: 100 | IC50 [11]: 5.85 µg/mL | IC80 [11]: 17.8 µg/mL | MPI [11]: 100 | IC50 [12]: 5.65 µg/mL | IC80 [12]: 17.9 µg/mL | MPI [12]: 100 | IC50 [13]: 2.92 µg/mL | IC80 [13]: 13.1 µg/mL | MPI [13]: 100 | IC50 [14]: 0.091 µg/mL | IC80 [14]: 0.387 µg/mL | MPI [14]: 100 | IC50 [15]: 0.034 µg/mL | IC80 [15]: 0.254 µg/mL | MPI [15]: 100
